The results in this text go back to paper PMC7895813 (Journal of Molecular Biology, 2021).

Substitutions are numbered along the chain they refer to. Names may count otherwise.

Data set [1] concerns the molecule itself. The data set is described as follows: SEC; cleaved MDM2 variants after removal of the GST-tag on HiLoad 16/600 Superdex 75; oligomeric state by comparison with molecular weight markers. (In general: SEC sorts molecules by how far they enter the pores of the column.)
Data set [2] concerns the molecule itself. The data set is described as follows: SEC; GST-MDM2 variants (3 mg/mL) incubated with 1:10 TEV for 16-20 h at 4 °C; soluble fraction of the cleaved products on Superdex 75 Increase 10/300; comparison with molecular weight markers and SDS-PAGE.
Data set [3] has as its target T1, UbcH5B–Ub, isopeptide-linked E2–Ub conjugate (UbcH5B S22R C85K) (human | , UniProt P62837 1-147; P0CG48 1-76, S22R | C85K, lysine 85 (C85K) isopeptide-linked to the C-terminus of Ub | C-terminus isopeptide-linked to lysine 85 of UbcH5B).
T1 construct: ubiquitin (Ub), the cut product of the ubiquitin precursor; Ub was cloned with an N-terminal 6xHis-tag, a TEV cleavage site and a GGS linker; also called E2(UbcH5B)–Ub; source: E. coli BL21(DE3) GOLD, purified; conjugate generated as described previously
Briefly: SPR; GST-tagged MDM2 variants captured on a CM-5 chip with coupled anti-GST antibody; serial dilution of UbcH5B–Ub as analyte; Biacore T200, 25 °C; 25 mM Tris-HCl pH 7.6, 150 mM NaCl, 1 mM DTT, 0.005% Tween-20; two technical replicates. The following applies: both partners purified. (SPR reads the build-up and loss of mass on a sensor chip optically.)

B1: Danio rerio MDM2 407-C (MDM2^z), GST-tag removed (domain or fragment, Danio rerio (zebrafish), UniProt O42354 377-445, looked up)
chain: FNSLEACLPATCLEPCVICQSRPKNGCIVHGRTGHLMACYTCAKKLKNRNKLCPVCREPIQSVVLTYMS
notes: MDM2, Danio rerio (zebrafish), residues 407 to the C-terminus; 407-417 correspond to 423-433 of human MDM2, which implies a numbered chain of about 475 residues; also called zebrafish MDM2 407-C; source: E. coli BL21(DE3) GOLD, GST-tag released with TEV, Superdex 75 gel filtration; not shown: GST, N-terminal, cleaved
Consider B1, for which the stoichiometry N (in general, the number of molecules, sites or subunits per partner or assembly) in data set [1] is 2.

B2: MDM2^h A434S (human MDM2 419-C A434S), GST-tag removed (domain or fragment, UniProt Q00987 419-491, looked up)
chain: TQDKEESVESSLPLNSIEPCVICQGRPKNGCIVHGKTGHLMACFTCAKKLKKRNKPCPVCRQPIQMIVLTYFP
notes: MDM2, human, residues 419 to the C-terminus, with A434S; source: E. coli BL21(DE3) GOLD, GST-MDM2 treated with TEV, soluble cleaved products on analytical SEC; not shown: GST, N-terminal, cleaved
In the case of B2, the binding result in data set [2] is given as “binds”.

B3: MDM2^h P491S (human MDM2 419-C P491S), GST-tag removed (domain or fragment, UniProt Q00987 419-491, looked up)
chain: B2 chain with S16A, P73S
notes: MDM2, human, residues 419 to the C-terminus, with P491S; source: E. coli BL21(DE3) GOLD, GST-MDM2 treated with TEV, soluble cleaved products on analytical SEC; not shown: GST, N-terminal, cleaved
Consider B3, for which the binding result in data set [2] is on record as “binds”.

B4: human MDM2 419-C G443T (MDM2^hGT), GST-tag removed (domain or fragment, UniProt Q00987 419-491, looked up)
chain: B2 chain with S16A, G25T
notes: MDM2, human, residues 419 to the C-terminus, with G443T; also called MDM2^h G443T; MDM2-G443T; source: E. coli BL21(DE3) GOLD, GST-tag released with TEV, Superdex 75 gel filtration; not shown: GST, N-terminal, cleaved
In the case of B4, the “stoichiometry N” value in data set [2] turned out to be 2.

B5: MDM2^h I435V (human MDM2 419-C I435V), GST-tag removed (domain or fragment, UniProt Q00987 419-491, looked up)
chain: B2 chain with S16A, I17V
notes: MDM2, human, residues 419 to the C-terminus, with I435V; source: E. coli BL21(DE3) GOLD, GST-MDM2 treated with TEV, soluble cleaved products on analytical SEC; not shown: GST, N-terminal, cleaved
With B5, the binding result in data set [2] is “binds”.

B6: GST-tagged human MDM2 419-C (MDM2^h) (domain or fragment, UniProt Q00987 419-491, looked up)
chain: B2 chain with S16A
notes: MDM2, human, residues 419 to the C-terminus (RING domain with the preceding region); pGEX-4T1, N-terminal GST-tag followed by a TEV cleavage site; GST kept for SPR and ubiquitination assays; also called GST-MDM2^h; wild-type MDM2^h; source: E. coli BL21(DE3) GOLD, purified (glutathione Sepharose, gel filtration); not shown: GST, N-terminal, kept
With B6, binding in data set [3] was characterised by a dissociation constant (Kd) of 13.5 ± 0.6 µM.

B7: GST-tagged human MDM2 419-C G443T (MDM2^hGT) (domain or fragment, UniProt Q00987 419-491, looked up)
chain: B2 chain with S16A, G25T
notes: MDM2, human, residues 419 to the C-terminus, with G443T; pGEX-4T1, N-terminal GST-tag followed by a TEV cleavage site; GST kept for SPR and ubiquitination assays; also called GST-MDM2^hGT; MDM2^h G443T; source: E. coli BL21(DE3) GOLD, purified (glutathione Sepharose, gel filtration); not shown: GST, N-terminal, kept
For the molecule B7, the Kd (as a rule, the concentration at which binding is half-saturated) in data set [3] was 16.3 ± 1.9 µM.
